From PMC10700546, “Atg18 oligomer organization in assembled tubes and on lipid membrane scaffolds” (Nature Communications, 2023)

Experiments:
[1] = molecular target: T1, Autophagy-related protein 18 (Atg18), wildtype (Saccharomyces cerevisiae), P43601; assay: single-particle cryo-EM, 2D classification; 18 uM soluble Atg18 in high-salt buffer (50 mM TRIS, 500 mM NaCl, 10 mM KPO4, 1 mM DTT, pH 7.5); monomer and dimer classes; conditions: remark: other sources report otherwise
T1 chain: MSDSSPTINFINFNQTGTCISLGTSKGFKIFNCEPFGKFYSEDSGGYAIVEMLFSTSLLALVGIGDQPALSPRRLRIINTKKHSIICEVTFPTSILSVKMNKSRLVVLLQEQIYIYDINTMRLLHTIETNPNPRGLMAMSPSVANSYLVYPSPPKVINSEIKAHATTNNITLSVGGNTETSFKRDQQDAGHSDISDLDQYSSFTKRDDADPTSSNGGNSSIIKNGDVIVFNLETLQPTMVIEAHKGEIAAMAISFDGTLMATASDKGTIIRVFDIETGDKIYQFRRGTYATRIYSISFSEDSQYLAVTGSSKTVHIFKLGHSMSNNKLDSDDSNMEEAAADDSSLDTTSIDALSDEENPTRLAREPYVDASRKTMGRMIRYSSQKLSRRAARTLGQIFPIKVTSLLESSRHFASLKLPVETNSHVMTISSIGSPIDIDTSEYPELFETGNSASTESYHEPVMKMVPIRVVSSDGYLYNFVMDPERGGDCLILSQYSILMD

[2] = molecular target: the molecule itself; assay: cryo-EM structure; helical reconstruction of Atg18 tubes; 20 uM tube solution in tube buffer (20 mM HEPES, 100 mM KAc, 1 mM DTT, pH 7.2); self-assembly into a helical lattice

Binder	stoichiometry N [1]	binding result [2]
Autophagy-related protein 18 (Atg18), wildtype, P43601 1-500 (natural protein) MSDSSPTINFINFNQTGTCISLGTSKGFKIFNCEPFGKFYSEDSGGYAIVEMLFSTSLLALVGIGDQPALSPRRLRIINTKKHSIICEVTFPTSILSVKMNKSRLVVLLQEQIYIYDINTMRLLHTIETNPNPRGLMAMSPSVANSYLVYPSPPKVINSEIKAHATTNNITLSVGGNTETSFKRDQQDAGHSDISDLDQYSSFTKRDDADPTSSNGGNSSIIKNGDVIVFNLETLQPTMVIEAHKGEIAAMAISFDGTLMATASDKGTIIRVFDIETGDKIYQFRRGTYATRIYSISFSEDSQYLAVTGSSKTVHIFKLGHSMSNNKLDSDDSNMEEAAADDSSLDTTSIDALSDEENPTRLAREPYVDASRKTMGRMIRYSSQKLSRRAARTLGQIFPIKVTSLLESSRHFASLKLPVETNSHVMTISSIGSPIDIDTSEYPELFETGNSASTESYHEPVMKMVPIRVVSSDGYLYNFVMDPERGGDCLILSQYSILMD	2	
Atg18-P72A/R73A (natural protein, Saccharomyces cerevisiae, UniProt P43601 1-500, looked up, Atg18, Saccharomyces cerevisiae, Uniprot ID P43601, with P72A and R73A; Same construct as the wild type apart from the two substitutions; also called Atg18-PR72AA; PR72AA; source: E. coli BL21(DE3), purified (Ni-NTA, TEV cleavage, second Ni-NTA, gel filtration); not shown: 6xHis, N-terminal, cleaved) MSDSSPTINFINFNQTGTCISLGTSKGFKIFNCEPFGKFYSEDSGGYAIVEMLFSTSLLALVGIGDQPALSAARLRIINTKKHSIICEVTFPTSILSVKMNKSRLVVLLQEQIYIYDINTMRLLHTIETNPNPRGLMAMSPSVANSYLVYPSPPKVINSEIKAHATTNNITLSVGGNTETSFKRDQQDAGHSDISDLDQYSSFTKRDDADPTSSNGGNSSIIKNGDVIVFNLETLQPTMVIEAHKGEIAAMAISFDGTLMATASDKGTIIRVFDIETGDKIYQFRRGTYATRIYSISFSEDSQYLAVTGSSKTVHIFKLGHSMSNNKLDSDDSNMEEAAADDSSLDTTSIDALSDEENPTRLAREPYVDASRKTMGRMIRYSSQKLSRRAARTLGQIFPIKVTSLLESSRHFASLKLPVETNSHVMTISSIGSPIDIDTSEYPELFETGNSASTESYHEPVMKMVPIRVVSSDGYLYNFVMDPERGGDCLILSQYSILMD		binds
